Reference: the supplement of paper PMC10567573

B1: ZBED3 (parent)
chain: GPGFHAGTSALWRHLRSAHRRELE
B2: KLHL14 (parent)
chain: CAVLDDSIYLVGGYSWSMGAYKSS

Variants of: B1
Test: protein stability index of a GFP-peptide fusion (GPS, HEK-293T) (PSI 1-6); higher = more stable
Settings: c terminus: a fixed tail appended
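Also: lentivirally expressed fusions sorted by FACS into six bins by GFP to DsRed ratio, PSI derived from sequencing read proportions per bin multiplied by bin number.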

Protein stability index: each site, then its substitutions
G1: K 3.07; P 3.04; A 2.7; S 1.79; L 2.52; Q 3.51; T 3.33; V 2.9; D 3.87; H 3.15; W 2.7; Y 2.1; C 2.65; I 2.76; E 3.11; F 1.96; R 3.02; M 3.18; N 3.45
P2: Q 4.32; C 1.37; E 3.53; T 3.01; S 2.92; D 3.38; W 2.18; N 3.5; G 3.2; I 2.8; Y 2.54; A 3.48; F 1.89; M 2.53; V 2.77; K 3.06; L 2.5; H 3.39
F4: M 2.68; K 3.62; L 3.3; R 4.36; G 3.01; Q 4.02; A 3.15; H 3.16; Y 3.37; T 3.75; D 3; N 2.84; E 2.83; V 3; S 3.39; W 2.22; C 3.19; P 3.59; I 2.99
G3: F 1.74; E 3.67; N 3.56; H 3.25; S 2.9; Y 3.36; T 3.75; I 2.5; V 3.1; D 3.13; W 1.96; C 3.23; Q 2.45; P 3.38; R 3.96; A 3.22; M 3.16; L 3.26; K 3.26
A6: L 2.24; M 2.58; I 2.06; H 2.12; F 1.83; K 2.3; P 2.77; D 3.52; G 2.54; C 1.65; N 2; E 3.04
H5: E 3.63; Y 2.89; M 2.82; Q 3.44; A 3.33; N 3.06; D 3.69; P 4.37; L 2.24; C 3.46; K 2.67; R 3.02; I 2.15; F 2.88; T 3.16; W 2.76; V 2.75; G 2.62; S 2.95

Variants of: B2
Test: as above
Settings: c terminus: a fixed tail appended

Protein stability index, by site and new letter:
Y14: P 1.91; E 1.69; H 1.83; L 1.86; V 2.19; W 2.93; F 2.66; A 1.55; M 2.42; S 1.83; G 1.2; T 1.44; C 2.15; R 1.74; D 2.23; Q 2.03; N 1.53; K 1.73
V11: L 1.72; Y 2.44; S 2.21; N 2.2; Q 1.79; K 2.1; M 3.05; C 1.91; H 1.88; A 1.94; R 1.24; G 1.93; D 1.94; P 1.56; I 3.25; F 1.6; W 1.7; T 1.83; E 2.33
L10: Y 2.08
S24: A 4.41; E 2.32; R 1.75; I 3.41; G 1.65; F 2.96; K 2.36; C 2.32; Y 3.04; D 1.06; T 3.12; Q 2.2; N 2.53
S17: P 1.54; E 2.25; L 3.11; N 1.53; D 1.52; G 2.69; T 2.27; M 1.49; K 2.48; V 1.96; H 1.98; I 1.92; Y 2.9; A 3.94; Q 2.79; W 3.53
W16: Q 1.8; R 1.78; I 2.35; F 2.87; H 1.79; N 1.89; E 2.53; G 1.95; A 1.78; P 2.38; M 3.09; S 2.01; Y 2.02; K 1.94; T 1.74; D 2.14; V 1.03
A20: C 2.64; P 1.33; T 3.02; Y 2.9; N 3.33; D 2.27; R 1.74; Q 3.05; V 2.02; H 2.31; W 2.87; K 1.11; F 2.88
G19: Q 1.62; P 1.96; L 3.64; T 2.01; K 2.23; F 3.41; V 1.97; A 2.33; E 1.22; C 3; R 2.98; H 3.16; S 2.83; I 2.9; Y 3.83; N 2.06; W 3.29
Y21: D 2.43; Q 2.35; R 2.45; M 2.65; N 2.25; L 2.68; A 2.91; I 2.99; T 1.24; S 2; G 1.08; K 2.14; F 3.42; E 1.45; H 2.64; V 2.6; P 2.44
G13: Y 1.73; C 2.36; M 3.5; I 2.92; S 1.95; R 2.08; K 1.51; N 2.32; T 3.26; W 3.56; P 1.73; V 1.27; D 1.98; Q 2.49; A 3.61; H 3.56; F 2.97
S23: Y 1.98; G 1; C 2.2; I 2.8; N 1.79; T 2.72; D 1.96; M 2.48; Q 2.73; K 2.43; A 2.92; P 1.58; L 5.74; H 1.57
M18: R 2.11; N 1.46; K 1.91; W 3.11; Y 2.48; E 2.53; T 2.15; H 2.5; Q 2.67; C 2.26; D 2.09; P 1.62; F 2.48; L 2.48; I 3.21; G 1.68; S 1.73; A 2.89
K22: C 1.85; P 1.79; I 2.6; T 2.27; V 3.73; L 3.43; A 3.59; G 2.66; N 2.69; R 3.14; D 3.84; H 3.04; Q 1.44; M 4.12
S15: V 3.31; E 1.03; H 1.65; I 2.56; W 2.25; T 2.38; F 2.58; K 2.83; P 2.77; M 4.83; Q 2.44; Y 1.87; A 3.83; D 2.34; N 2.28; G 2.88; R 1.86
G12: V 2.65; Y 1.55; C 3.07; D 2.39; N 3.82; I 2.47; Q 2.89; A 3.1; E 3.21; R 2.52; S 1.46; P 2.79; L 2.9; K 2.13; H 2.92; F 2.23; M 2.24
